Changes are numbered by the printed parent chain. Numbers in names are those of the source.
Legend:
[1] = target: the molecule itself; test: gel filtration (self-association)
[2] = target: the molecule itself; test: gel electrophoresis of non-heated samples and gel filtration on Sephadex-100 (homodimer)
Description: Under these conditions these FPs migrated as yellow fluorescent band at about 50 kDa. […] Purified protein samples (˜1 mg/ml) were loaded onto a Sephadex-100 column (0.7×60 cm) and eluted with a solution of 50 mM phosphate buffer (pH 7.0) and 100 mM NaCl. EGFP, HcRed1 and DsRed2 (Clontech) were used as monomer, dimer and tetramer standards, respectively.

B1: S3-2 red fluorescent mutant of hm2CP (other)
chain: MEGGPALFQSDMTFKIFIDGVVNGQKFTIVADGSSKFPHGDFNVHAVCETGKLPMSWKPICHLIQYGEPFFARYPNGISHFAQECFPEGLSIDRTVRFENDGTMTSHHTYELDGTCVVSRITVNCDGFQPDGPIMRDQLVDILPNETHMFPHGPNAVRQLAFIGFTTADGGLMMSHFDSKMTFNGSRAIKIPGPHFVTTITKQMKDTSDKRDHVCQREVTYAHSVPRITSAI
notes: No tag is stated for the gel-filtration sample; also called S3-2 red fluorescent protein
binding result [1]: no binding

B2: phiYFP, yellow fluorescent protein from Phialidium sp. (wild type) (other)
chain: MSSGALLFHGKIPYVVEMEGNVDGHTFSIRGKGYGDASVGKVDAQFICTTGDVPVPWSTLVTTLTYGAQCFAKYGPELKDFYKSCMPEGYVQERTITFEGDGVFKTRAEVTFENGSVYNRVKLNGQGFKKDGHVLGKNLEFNFTPHCLYIWGDQANHGLKSAFKIMHEITGSKEDFIVADHTQMNTPIGGGPVHVPEYHHITYHVTLSKDVTDHRDNMSLVETVRAVDCRKTYL
notes: Recombinant protein from the whole coding region, expressed in E. coli and purified on TALON; Found to be a homodimer by gel electrophoresis of non-heated samples and by gel filtration; not shown: N-terminal six-histidine tag from the pQE30 vector
binding result [2]: binds

B3: phiYFP-Y1 (phiYFP mutant with S2P, E174G, I201M) (other)
chain: B2 chain with S2P, E174G, I201M
notes: Found to be a homodimer
binding result [2]: binds

B4: phiYFP-M0 (phiYFP mutant with S2P, V103N, M166R, E174G, Y198N, I201M, T202S, T206K, V221K) (other)
chain: B2 chain with S2P, V103N, M166R, E174G, Y198N, I201M, T202S, T206K, V221K
notes: No tag is stated for the tested sample
binding result [1]: no binding

B5: phiYFP-M1 (phiYFP mutant with E88D, V103N, M166C, E174G, I201M, T202S, T206K, V221K) (other)
chain: B2 chain with E88D, V103N, M166C, E174G, I201M, T202S, T206K, V221K
notes: No tag is stated for the gel-filtration sample
binding result [1]: no binding
